Test results reported in PMC4471349.

Target: pVP28-Agα1p displayed on the cell surface of P. pastoris (white spot syndrome virus (WSSV))
Test: yeast agglutination; two yeast clones mixed in PBS with 1% BSA at initial OD600 = 0.7, left to stand 1 h; percent agglutination from the fall in OD600; cells induced with methanol 24-96 h

“mPmRab7-Agα1p displayed on the cell surface of P. pastoris (domain or fragment)” gave a percent agglutination (48 h induction) of 38% and a percent agglutination (longer induction times) of 20%.
